± gives the uncertainty stated by the source.
Test: amyloid nucleation score (Sup35N fusion, yeast selection) (log enrichment); library NNK1; higher = more nucleation; inactive = no reads after selection
How it was run: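 Three technical output replicates were used for random libraries. Psi-negative yeast expressing peptides of 20 random codons fused to Sup35N were induced with 100 μM copper sulfate for 24 hours and grown 7 days at 30°C on medium lacking adenine and uracil, and input and output plasmid inserts were Illumina-sequenced, excluding sequences with under 100 input reads. The nucleation score is the DiMSum log enrichment of output over input reads, centred on the mode score of non-aggregating sequences.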

Substance	amyloid nucleation score
WIVRPSGCGVTTR	-0.414 ± 0.69
VYAYVSHLLIYVFSGRV	inactive
CGCETDMGSA	inactive
FFLRSPFL	0.016 ± 0.41
VTSLYQDVT	-2.31 ± 2.4
MQINGRESDCMWNNMNARDW	-0.108 ± 0.27
NFHFVMGISVIRRLMSESQS	-0.366 ± 0.66
KANFFTLRSMFWGPMN	1.15 ± 0.64
GQGALRVDCLVHRQVVSVVL	0.176 ± 0.62
VFWVNFLFYYGSLLHSKGV	-1.05 ± 1
NVYFLPIMA	-1.06 ± 0.54
RYLLKLFRIVGFGVVFMMSK	-0.511 ± 0.34
CIIMCLRSDPV	0.211 ± 0.3
GCVSVPYQLPPLISYGLVN	-0.123 ± 0.62
AVRHLPAPRHSMCLIWYCNC	0.156 ± 0.37
FGWGTLIGGLWTDNEQSLFT	-0.375 ± 0.49
DFSVQKSGSYQTEHYLVFRN	-0.12 ± 0.21
CGYCD	-1.69 ± 2.4
LNYLYDIMLSSLTSQTDSMS	-0.689 ± 0.66
TGLWPMEYSCQCDVVYPVSY	-0.051 ± 0.76
AEASKYVMYIKARCMQLMRS	-0.931 ± 1.1
CTVLRRFIRYHTITVYMWL	0.257 ± 0.75

Substance	amyloid nucleation score
QMTKNYEWDSTRIACVGLHR	2.68 ± 0.11
WCSLGCNYTVLFTLLGMVNT	0.116 ± 0.37
GLHREATSYLNRLFRINSG	-0.48 ± 0.56
LREFLPLSNTVVGFTLDSYV	-0.526 ± 0.9
KVKANILVFLTKLSMRPTKP	1.86 ± 0.29
AVMFVTCLIVSASGHLLYTL	1.39 ± 0.88
YLKMFV	0.01 ± 0.32
IYASLNVEICFADLPWSTWV	0.358 ± 0.81
LVLVWVAIHFDRLRIHRFFI	inactive
ADILWARFLWMSEGIH	0.054 ± 0.23
NLSSYGR	0.798 ± 0.23
DRTTNVEYWLGAEMLSSRTV	-0.469 ± 0.78
HARIS	-0.313 ± 0.79
LKTEPHIRLSPLETRPV	0.552 ± 0.77
PCLVGIDMVTMVAESLCGSG	-0.958 ± 1.3
DVVLDYSRQTYKDPASRMYA	1.1 ± 0.71
TVTGFMF	-0.645 ± 1.7
CTSPLVLIHKYYYVMVAVHS	0.821 ± 0.55
VGAFVSRVSLLDADGLLLGS	-0.09 ± 0.61
YRCAYFL	-0.25 ± 0.69
NADCLIDDFASFDHMVPG	0.004 ± 0.51
NRRVSLCRASCSIMRVKPLG	-0.261 ± 0.56

Substance	amyloid nucleation score
KTRFMLVLKLKRDNDLKMRF	-0.288 ± 0.3
DIKCLLR	0.238 ± 0.36
DNLNYEMHVLWMCNL	4.82 ± 0.056
MYASELSLKPATYSWK	-0.646 ± 0.42
SASAISTPGGCYDGYLFDSQ	-0.457 ± 0.61
CCWNNSLS	inactive
GVKLYDFVNRCCVMNLLAVK	0.428 ± 0.47
GLVFTLWSASRCFFLRKKLW	-0.083 ± 0.83
TNTSHVLTLESCSCRERVSR	0.969 ± 0.55
YASGLILIKSPFV	0.276 ± 0.34
TGKGSSEHLRSNMNHRLYCA	0.85 ± 0.43
IIAKNTDKVSCTVRVSFL	-0.894 ± 1.4
QSNSTYYGGSSRSGEKFPLG	3.83 ± 0.083
LYPLMEGDRKKL	0.981 ± 0.47
HNFEFTRLAHLDSSTL	0.248 ± 0.47
CLFSWD	0.118 ± 0.3
IKSVMDWSSCTEL	-0.144 ± 0.33
NHPTRPLTTQLGLAAQAKSG	-0.153 ± 0.47
KKYLVNNYFLGFR	0.127 ± 0.25
CVGSIKVNSLSRLFCHLLCV	-0.187 ± 1.2
TNGWTQHKYKYRSFSGHFII	inactive
KEILVGLPMGGVRGCGSSSG	0.505 ± 1.2

Substance	amyloid nucleation score
VPGLRI	0.584 ± 0.54
VYCCLNFLAFNFSWV	6.308 ± 0.063
NECSGGLQKLLNRTTNSDLW	0.185 ± 0.33
SPAFPP	0.798 ± 0.79
NDQVNVNFS	0.338 ± 0.22
HSIVDSRLSCICILSS	4.16 ± 0.16
RFFCSD	0.641 ± 0.97
FSWCGWQRRSSVVAGSRILW	-0.118 ± 1.1
LYPNRAGGRLAGLGGMPYE	0.085 ± 0.44
PINLLVLIAGNFYWLWTFGQ	2.84 ± 0.15
YINYHCFMIRFQFILVYRYQ	inactive
LFDARDSRFSCRYVMRRVWV	0.195 ± 0.25
ARITMYLCFNRLLVGKVCSG	-0.176 ± 1.1
KRSANVYRLRCLGGKMLHVN	3.34 ± 0.081
YYQRTPSTDRSLWFTGWNVN	-0.424 ± 0.19
EQASVIKDVYFPHILRLRMA	-0.432 ± 0.4
CVSCVSGILFEMCPSSFPNQ	-0.578 ± 0.9
THGGCCQGFQPTQLQSLTHQ	0.367 ± 0.6
ILTLIMAL	0.013 ± 0.33
YHSSKGCIVCCR	-0.391 ± 0.24
